Assay results published in patent US20160200782A1 (MOERAE MATRIX, published 2016).

Columns and labels:
Assay in all cases: cell-based or functional assay
[1] = molecular target: Lck(h) (human, UniProt P06239 1-509, limits assumed)
[2] = molecular target: PAK5(h) (human, UniProt Q9P286 1-719, limits assumed)
[3] = molecular target: CK1γ2(h) (human, UniProt P78368 1-415)
[4] = molecular target: CK1γ3(h) (human, UniProt Q9Y6M4 1-447)
[5] = molecular target: CLK2(h) (human, UniProt P49760 1-499, limits assumed)
[6] = molecular target: EGFR(T790M)(h) (human, UniProt P00533 696-1210, limits assumed)
[7] = molecular target: Ab1(M351T)(h) (human, UniProt P00519 27-1130, limits assumed)
[8] = molecular target: GRK5(h) (human, UniProt P34947 1-590)
[9] = molecular target: ACK1(h) (human, UniProt Q07912 110-476, limits assumed)
[10] = molecular target: JAK3(h) (human, UniProt P52333 781-1124, limits assumed)
[11] = molecular target: MAPK1(h) (human, UniProt P28482 1-360, limits assumed)
[12] = molecular target: PKA(h) (human)
[13] = molecular target: PKCη(h) (human, UniProt P24723 1-683)
[14] = molecular target: Plk1(h) (human, UniProt P53350 1-603, limits assumed)
[15] = molecular target: T1, Bmx(h) (human, UniProt P51813 1-675, limits assumed)
T1 sequence (looked up): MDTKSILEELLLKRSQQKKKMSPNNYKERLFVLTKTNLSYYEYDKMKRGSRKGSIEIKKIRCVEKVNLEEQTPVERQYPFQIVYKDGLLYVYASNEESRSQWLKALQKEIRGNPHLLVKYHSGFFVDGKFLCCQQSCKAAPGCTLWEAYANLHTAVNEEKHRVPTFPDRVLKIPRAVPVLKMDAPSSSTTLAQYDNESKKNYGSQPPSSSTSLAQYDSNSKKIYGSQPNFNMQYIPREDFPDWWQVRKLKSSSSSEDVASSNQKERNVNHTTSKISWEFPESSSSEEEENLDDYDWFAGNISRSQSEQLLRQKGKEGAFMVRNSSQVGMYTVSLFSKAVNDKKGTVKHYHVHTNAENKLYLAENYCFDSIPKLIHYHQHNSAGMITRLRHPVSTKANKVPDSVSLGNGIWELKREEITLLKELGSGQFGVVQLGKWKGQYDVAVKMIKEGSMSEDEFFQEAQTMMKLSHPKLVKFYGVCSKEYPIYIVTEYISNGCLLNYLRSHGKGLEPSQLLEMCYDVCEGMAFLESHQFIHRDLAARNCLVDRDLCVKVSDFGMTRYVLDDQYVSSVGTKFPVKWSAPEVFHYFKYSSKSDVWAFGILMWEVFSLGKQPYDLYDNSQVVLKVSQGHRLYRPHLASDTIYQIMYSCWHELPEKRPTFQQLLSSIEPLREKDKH

[16] = molecular target: SRPK2(h) (human, UniProt P78362 1-688, limits assumed)
[17] = molecular target: Tie2(R849W)(h) (human, UniProt Q02763 771-1124, limits assumed)
[18] = molecular target: TLK2(h) (human, UniProt Q86UE8 1-772, limits assumed)
[19] = molecular target: CK1γ1(h) (human, UniProt Q9HCP0 1-422)
[20] = molecular target: CK2α2(h) (human, UniProt P19784 1-350)
[21] = molecular target: cKit(V560G)(h) (human, UniProt P10721 544-976, limits assumed)
[22] = molecular target: EGFR(L858R)(h) (human, UniProt P00533 696-1210, limits assumed)

FAKLAARLYRKALARQLGVAA [MMI-0300]
% activity [1]: -2%
% activity [2]: 110%
% activity [3]: 123%
% activity [4]: 125%
% activity [5]: 103%
% activity [6]: 100%
% activity [7]: 90%

KAFAKLAARLYRKALARQLGVAA [MMI-0400]
% activity [8]: 131%
% activity [9]: 95%
% activity [10]: 122%
% activity [11]: 100%
% activity [12]: 119%
% activity [13]: 98%
% activity [14]: 119%
% activity [15]: 26%
% activity [16]: 97%
% activity [17]: 108%
% activity [18]: 151%
% activity [19]: 116%
% activity [20]: 96%
% activity [21]: 124%
% activity [22]: 52%
